Reference: patent US9371519B2, “Complex type sugar chain hydrolase” (National Institute of Advanced Industrial Science and …, priority 2011, dated 2016)
Entries after “also recorded” stand apart in the source; their conditions may differ.

Assay: Detection of transglycosidase activity (HPLC, MS of transglycosylation product)
Type: biochemical
Conditions: donor 2 mM NGA2-Asn-Fmoc, acceptor 50 mM p-nitrophenylglucose, pH 6.0, 30° C.
Description: (§1) The transglycosidase activity of Endo-Om was detected by incubating the reaction solution containing a biantennary complex type sugar chain as the substrate, acceptor molecules (p-nitrophenylglucose), and an Endo-Om partially purified enzyme solution at 30° C. for 3 hours, and then subjecting it to HPLC after the completion of the reaction; a new peak different from the hydrolysate was detected, and was identified by MS analysis to be a transglycosylation product including an acceptor molecule to which a biantennary complex type sugar chain is added (FIG. 7).
as §1, with “Endo-Cp” for “Endo-Om”, “11).” for “7).”
as §1, with “of Endo-Pa” for “of Endo-Om”, “an Endo-Pa” for “an Endo-Om”, “for 16” for “for 3”, “(FIG. 15).” for “(FIG. 7).”
The transglycosidase activity of Endo-Om was detected as follows. The reaction solution containing a sodium acetate buffer at a final concentration of 100 mM (pH 6.0), 2 mM NGA2-Asn-Fmoc, 50 mM acceptor molecule (p-nitrophenylglucose), and an Endo-Om purified enzyme solution (total volume: 10 μl) was incubated at 30° C. for 3 hours, and heated at 95° C. for 5 minutes to stop the enzyme reaction. The total amount of the reaction solution was subjected to HPLC by the method described in Example 4, and detection was carried out using a UV detector (274 nm). In addition, the peak corresponding to a transglycosylation product was collected, freeze-dried, and then redissolved in Milli-Q water and subjected to mass spectrometry using MALDI-QIT-TOFMS (AXIMA-QIT, Shimadzu Co., Ltd.), thereby identifying the transglycosylation product.
The transglycosidase activity of Endo-Cp was detected as follows. […]
The transglycosidase activity of Endo-Pa was detected as follows. […]

B1: Endo-Zr: endo-β-N-acetylglucosaminidase from Zygosaccharomyces rouxii ATCC2623, amino acid sequence SEQ ID NO. 13, 639 amino acids (protein, listed as Zygosaccharomyces rouxii)
chain: MKRINQVPGKPEITSLYFDDLNSLQRWFDKGFMDSRDLSNVPKERYSNYVKFEKDSIITIPNLSARKTEIIVCHDFKGGYQSGHDLYPNGQYGTESCKPYSLRYPEIVDKFVYFSHHCVTIPPSPWTNYLHRHSIPVLGTLILEHYPHNGELFKKNAKGEFLYVKYLVELCRKFHFEGWLINFETVFGNNSKQVIPFLRELTARVECEIYGGSVIWYDAFTTFSNKPSHQNEVNLFNYDAYENSSQFMTNYMWDSHNVGNSLRNVGALGMHSHVALGVDVWGRNMQVCRGGFESNIAIYYAKRFGTNAVIFAPGWTYENFGEDQFYEKDDIFWGNIKSTLQLDSYSDSQLSSWFVSESKKTRYFTTFFSTGSGNFFNLNGRRISNDNWVQLGLSTPFPVNSHSYLSFKDSFVGGSCLALPLSPMENGKLHLFRFEQFIKDQQKTSDSEIRVKLSYKSLGALPPVKLVIKCFVIRRGKRSKTILKVDDVSLVLPLSHSACQTAQGSTKWAVVEQIVPLPSLESRFLEEYYVEDAHLEWTMDNNHDEWLMVPERTEDLDCKLLIGSLCLEIGPHEDNNKRQIVRNGPQLSWQDNESSFMWLKLQDGKLDSVLFTPTTKVNGKQPTILECGRNGTLKFVVKK
With B1 the Transglycosidase activity (16 hours) was “not detected; also recorded: transglycosidase activity was not confirmed”.

B2: Endo-Pa: endo-β-N-acetylglucosaminidase from Pichia anomala ATCC36904, amino acid sequence SEQ ID NO. 9, 656 amino acids (protein, listed as Pichia anomala)
chain: MQHDHAAIKFEEDSISSQRFSSLDEVEKWYNTKNRSPLDDLRIPRESLSHYNRFRDNNDEIKVLVCHDFKGNYQEGEDENPLGYFPHSSGQHYFIQFPSLVDLFIFFSHYKIAVPPVSWINSLHRQGIPVLGTLIFEGTDVSESDKLLEKNENGDFKYLEILCELVRHYGFDGWLVNMESHFSSVAKAQDLLLFDEALRSTLHLKVPGSKLIWYDSLITQKNRVFYQNAVNEWNYDHFSTSDLFFTNYWWNEEDLKRNILNIGLQGVKQKLFVGVDIWGRGSRIGNGGFESGLAINYLKRYSTNVALFAPAWTYENFEEDQFLIKDRKFWIGDQTSDETGGSVATYVSHYTTPVYVKDQNVKFYTNFSVGEGTKYRVFAHTVFKNNWVNGNLQLPTPIIDNEKRIDIYYKESFNGGSSLKVTQRNSILNDGKSNILQLFSFKNDIHSNNLNVSVSFKYLSEIPLNSTFQLEIKFYIERRYRSVTRVRDGTFKLPLAFSNKNWKYIETSFALPRLQIREHFVLEGLQIRWVDNVDELSSSIGTSGDFTESWIIVPQNSDPNAVYELLIGDLLVEGIKTANGNIDAVTKLSRKITLDSRSILATWKDDTEVLYWIIYVNAKFLGIAHKSLWRVQRGDKLRVDVFTRSGKLVKGEDIFI
For B2, the Transglycosidase activity (16 hours) was “significant transglycosidase activity was confirmed; also recorded: has activity for transferring the cleaved sugar chain to any acceptor molecule”.

B3: Endo-Cp: endo-β-N-acetylglucosaminidase from Candida parapolymorpha DL-1 ATCC26012, amino acid sequence SEQ ID NO. 5, 745 amino acids (protein, listed as Candida parapolymorpha)
chain: MPRNTAKHSSLPQTNLPLSSLESSFFDSLDELANWERRIHEKSFELDELNKPTEKLAHYTRARQQSTSEDVKLLVCHDLKGGYQVNEDEDPLGYFPHPDGQHYFLQYPQLVDKFVYFSHHRVSIPPVSWINVCHRNAIKCLGTVIFEGNTYRDFEEADKLLTKQDGEYVFVRCLVALVEYFQFDGYLFNIETRFSNTRIASLLEPFLEQLRAELHVRNPSTELIWYDSYIYPENRVLYKNGVTEANYNFFSCCDSFFTNYWWNVKHLQDNIKNVGVLGSRLKVYAGYDVWGRGTMIGKGGYDSALACQMIKKYRSNVALFAPAWTYEYLARKDFTQNDTRFWIGLFDGESSMATTFKPYSSPLYKINDSNFVFYTNFGSGEGCAFYECGEKVYRDNWVNGSLQMEIPYAIHTRNKNGIQWTLSKEDSFHGGSCVEIKYNEVVDDKGYQVFNNQTINSFSLFSFVQDCSFPTVNVKLTYKLNHKTKSFFKLKIGYYIERRYRTVQKVRSGCLVVPLLSTNDQWFTIEEPFHVSLQNSHEFIVLDSATIFYEETEDPFMRAHVVEDQSTSSVIDNEEYEKLMNSEIYFDDEDEDWILVPSDISMESTDNGGRENHTWKVISNQIRKKHPKSHPSTSPVLKLGELAIINANDYPSDSFFKLMPVNSIDVRRWEGKILLIWKTNQDSVLYHLIFVDDVFQGISLVSKFVFEDQAVDEKSFKTKSGGSTKVRIDTVNRLGILVKGTDM
For B3, the Transglycosidase activity (3 hours) was “significant transglycosidase activity was confirmed; also recorded: has activity for transferring the cleaved sugar chain to any acceptor molecule”.

B4: Endo-Om: endo-β-N-acetylglucosaminidase from methylotrophic yeast Ogataea minuta IFO10746, amino acid sequence SEQ ID NO. 1, 772 amino acids (protein, listed as Ogataea minuta)
chain: MAQSQLLGGAVRPVFFDKLEELRRWHTQSANLSRESELDSLNVATEPFSSYERAQTGSGSRSSEPVPGDKEDPPIKLMVCHDFKGGYQDYEDAQPLGYFPHPTGSRYFLQYPQLIDQFVYFSHHRVTVPPVNWINFCHRNGIKCFGTVIFEGNASKDFEELDRLVSRDEKGDFVFVDALIKLAAHYGFDGYLLNIETTFSNTKIAADLEPFAEQLKSGLHCLDSKNELIWYDSYVFPANKVSYTNGVTESNYNFFSLSDAFFSNYWWNIKNLQENIKNVGVLGVQKKIYVGYDVWGRGTLVGKGGFDSSLACKMIAKFKSNVALFAPAWTYESLGPKDFNQNDARFWIGLFENESSISSTVPPHSSAVYKINESSFIFYTNFSSGEGNRFFSKGSEVYRKNWVNGSLQFDLPIDLHRKDKNGLQWALDKSDAFHGGACLEIKYSEIKDENGYQIFNNQMVSDFTLFNFTKECHFPTVNVKVTYKLNHKTKSTFKIKIKYIIERRFRSVQTVRTGYLTIPLLSTSGKWFTVEESFQINLQTSHEYIVLESAHVTYDEDRSADSFFRSYIVEDSAITSVIDNEEYEKLINSEIYNDDEDEDWILVPSDVSISSSESQSNDSKTQYLGRKLFGNKSTPKTRTLEGTAPLLRIGEFAIISANNYPSSNFLAVTSVKSIESSRLEGDSLVLLNWQVGEGHQKGVCYYIIYVNGAVVGLSVAPKFIYQDTELASENSASARSNYKKSGLGSSSDRKSKVRVDSVDKLGNVFTGSEVWV
In the case of B4, the Transglycosidase activity (3 hours) is reported as “has activity for transferring the cleaved sugar chain to any acceptor molecule; also recorded: significant transglycosidase activity was confirmed”.
